The chains are these.
B3: Bacillus subtilis τ A550V mutant (natural protein, B. subtilis (strain 168), UniProt P09122 1-563, looked up)
chain: MSYQALYRVFRPQRFEDVVGQEHITKTLQNALLQKKFSHAYLFSGPRGTGKTSAAKIFAKAVNCEHAPVDEPCNECAACKGITNGSISDVIEIDAASNNGVDEIRDIRDKVKFAPSAVTYKVYIIDEVHMLSIGAFNALLKTLEEPPEHCIFILATTEPHKIPLTIISRCQRFDFKRITSQAIVGRMNKIVDAEQLQVEEGSLEIIASAADGGMRDALSLLDQAISFSGDILKVEDALLITGAVSQLYIGKLAKSLHDKNVSDALETLNELLQQGKDPAKLIEDMIFYFRDMLLYKTAPGLEGVLEKVKVDETFRELSEQIPAQALYEMIDILNKSHQEMKWTNHPRIFFEVAVVKICQTSHQSAADLPEVDMLMKKIQQLEQEVERLKTTGIKAAAESPKKEAPRVPKGGKSNYKAPVGRIHEILKEATRPDLDLLRNSWGKLLAHLKQQNKVSHAALLNDSEPVAAGSAAFVLKFKYEIHCKMVAEDNNGVRTNLEQILESMLGKRMDLIGVPEAQWGKIREEFLEDHQQENEGSNEPAEEDPLIAEVKKLVGADLIEIKD
B4: Δτ18, B. subtilis τ lacking the last 18 C-terminal residues (domain or fragment, B. subtilis (strain 168), UniProt P09122 1-545, looked up)
chain: MSYQALYRVFRPQRFEDVVGQEHITKTLQNALLQKKFSHAYLFSGPRGTGKTSAAKIFAKAVNCEHAPVDEPCNECAACKGITNGSISDVIEIDAASNNGVDEIRDIRDKVKFAPSAVTYKVYIIDEVHMLSIGAFNALLKTLEEPPEHCIFILATTEPHKIPLTIISRCQRFDFKRITSQAIVGRMNKIVDAEQLQVEEGSLEIIASAADGGMRDALSLLDQAISFSGDILKVEDALLITGAVSQLYIGKLAKSLHDKNVSDALETLNELLQQGKDPAKLIEDMIFYFRDMLLYKTAPGLEGVLEKVKVDETFRELSEQIPAQALYEMIDILNKSHQEMKWTNHPRIFFEVAVVKICQTSHQSAADLPEVDMLMKKIQQLEQEVERLKTTGIKAAAESPKKEAPRVPKGGKSNYKAPVGRIHEILKEATRPDLDLLRNSWGKLLAHLKQQNKVSHAALLNDSEPVAAGSAAFVLKFKYEIHCKMVAEDNNGVRTNLEQILESMLGKRMDLIGVPEAQWGKIREEFLEDHQQENEGSNEPAEEDP

Assay in all cases: SEC
In general terms: Size exclusion chromatography separates by hydrodynamic size, large species first.

Data set [1] deals with the molecule itself.
The target of data set [2] is B3.
Data set [3] concerns the target B4.
Data set [4] concerns the molecule itself. This is another data set of the same source.

Where two headings read alike, the source gives them in different places.

B1: Bacillus subtilis τ subunit of the clamp-loader (DnaX) (natural protein, B. subtilis (strain 168), UniProt P09122 1-563, looked up)
chain: MSYQALYRVFRPQRFEDVVGQEHITKTLQNALLQKKFSHAYLFSGPRGTGKTSAAKIFAKAVNCEHAPVDEPCNECAACKGITNGSISDVIEIDAASNNGVDEIRDIRDKVKFAPSAVTYKVYIIDEVHMLSIGAFNALLKTLEEPPEHCIFILATTEPHKIPLTIISRCQRFDFKRITSQAIVGRMNKIVDAEQLQVEEGSLEIIASAADGGMRDALSLLDQAISFSGDILKVEDALLITGAVSQLYIGKLAKSLHDKNVSDALETLNELLQQGKDPAKLIEDMIFYFRDMLLYKTAPGLEGVLEKVKVDETFRELSEQIPAQALYEMIDILNKSHQEMKWTNHPRIFFEVAVVKICQTSHQSAADLPEVDMLMKKIQQLEQEVERLKTTGIKAAAESPKKEAPRVPKGGKSNYKAPVGRIHEILKEATRPDLDLLRNSWGKLLAHLKQQNKVSHAALLNDSEPVAAGSAAFVLKFKYEIHCKMVAEDNNGVRTNLEQILESMLGKRMDLIGVPEAQWGKIREEFLEDHQQENEGSNEPAEEDPLIAEAKKLVGADLIEIKD
Take B1: the binding result in “SEC [1]” is listed as “binds”.

B2: Geobacillus stearothermophilus replicative helicase DnaB (enzyme, G. stearothermophilus (strain NCA1503), UniProt Q9X4C9 1-454, looked up)
chain: MSELFSERIPPQSIEAEQAVLGAVFLDPAALVPASEILIPEDFYRAAHQKIFHAMLRVADRGEPVDLVTVTAELAASEQLEEIGGVSYLSELADAVPTAANVEYYARIVEEKSVLRRLIRTATSIAQDGYTREDEIDVLLDEADRKIMEVSQRKHSGAFKNIKDILVQTYDNIEMLHNRDGEITGIPTGFTELDRMTSGFQRSDLIIVAARPSVGKTAFALNIAQNVATKTNENVAIFSLEMSAQQLVMRMLCAEGNINAQNLRTGKLTPEDWGKLTMAMGSLSNAGIYIDDTPSIRVSDIRAKCRRLKQESGLGMIVIDYLQLIQGSGRSKENRQQEVSEISRSLKALARELEVPVIALSQLSRSVEQRQDKRPMMSDIRESGSIEQDADIVAFLYRDDYYNKDSENKNIIEIIIAKQRNGPVGTVQLAFIKEYNKFVNLERRFDEAQIPPGA
Turning to B2, the binding result (in data set [2]; in data set [3]; in the data set “SEC [1]”) was “binds” each time.
Regarding B3, in “SEC [4]”, the binding result was “binds”.
Regarding B4, the binding result in “SEC [1]” is reported as “binds”.

Values taken from article PMC3035870 (Molecular microbiology, 2009).
